Experimental findings from patent CN112125972A (SINOCELLTECH LTD, dated 2020) are described below.

For experiment [1], the target named is T1, HPV45 VLP (Human papillomavirus type 45, UniProt P36741 27-539).
T1 construct: also called HPV45完整VLP蛋白
T1 sequence: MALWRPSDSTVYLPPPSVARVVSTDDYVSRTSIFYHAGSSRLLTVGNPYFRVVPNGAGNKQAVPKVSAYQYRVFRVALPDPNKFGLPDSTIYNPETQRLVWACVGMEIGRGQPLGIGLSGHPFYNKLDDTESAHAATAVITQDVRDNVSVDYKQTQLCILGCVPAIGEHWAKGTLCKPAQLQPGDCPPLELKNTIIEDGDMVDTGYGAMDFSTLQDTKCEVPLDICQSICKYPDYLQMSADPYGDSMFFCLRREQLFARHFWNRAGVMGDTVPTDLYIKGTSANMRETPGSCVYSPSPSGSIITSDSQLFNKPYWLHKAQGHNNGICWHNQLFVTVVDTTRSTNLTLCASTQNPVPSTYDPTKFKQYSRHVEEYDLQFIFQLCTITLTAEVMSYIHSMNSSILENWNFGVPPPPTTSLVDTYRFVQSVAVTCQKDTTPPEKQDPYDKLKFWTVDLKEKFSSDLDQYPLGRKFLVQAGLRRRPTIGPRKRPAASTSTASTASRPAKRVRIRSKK
Description: indirect ELISA, VLP coated at 2 μg/mL, antibody at 10 ng/mL. (An ELISA detects its analyte on a solid surface through an enzyme-linked reagent.)

The next experiment deals with T2, HPV58 VLP (Human papillomavirus type 58, UniProt P26535 27-524).
T2 construct: also called HPV58完整VLP蛋白
T2 sequence: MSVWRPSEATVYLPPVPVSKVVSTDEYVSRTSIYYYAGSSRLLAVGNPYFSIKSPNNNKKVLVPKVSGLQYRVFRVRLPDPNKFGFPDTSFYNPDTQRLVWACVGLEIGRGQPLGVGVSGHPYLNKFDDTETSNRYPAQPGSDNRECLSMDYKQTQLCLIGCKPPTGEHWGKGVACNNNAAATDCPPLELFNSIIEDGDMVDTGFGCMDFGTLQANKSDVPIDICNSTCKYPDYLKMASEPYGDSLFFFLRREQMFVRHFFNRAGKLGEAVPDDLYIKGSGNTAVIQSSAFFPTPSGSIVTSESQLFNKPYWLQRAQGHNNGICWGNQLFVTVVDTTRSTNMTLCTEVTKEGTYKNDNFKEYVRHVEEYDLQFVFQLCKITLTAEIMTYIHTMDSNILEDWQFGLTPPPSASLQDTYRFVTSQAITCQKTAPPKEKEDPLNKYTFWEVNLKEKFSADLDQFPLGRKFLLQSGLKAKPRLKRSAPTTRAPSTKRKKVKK
The description is as above.

The target in the next experiment is T3, HPV59 VLP (Human papillomavirus type 59).
T3 construct: also called HPV59完整VLP蛋白
The experiment is described as above.

The next experiment addresses T4, HPV33 VLP (Human papillomavirus type 33, UniProt P06416 1-499).
T4 construct: also called HPV33完整VLP蛋白
T4 sequence: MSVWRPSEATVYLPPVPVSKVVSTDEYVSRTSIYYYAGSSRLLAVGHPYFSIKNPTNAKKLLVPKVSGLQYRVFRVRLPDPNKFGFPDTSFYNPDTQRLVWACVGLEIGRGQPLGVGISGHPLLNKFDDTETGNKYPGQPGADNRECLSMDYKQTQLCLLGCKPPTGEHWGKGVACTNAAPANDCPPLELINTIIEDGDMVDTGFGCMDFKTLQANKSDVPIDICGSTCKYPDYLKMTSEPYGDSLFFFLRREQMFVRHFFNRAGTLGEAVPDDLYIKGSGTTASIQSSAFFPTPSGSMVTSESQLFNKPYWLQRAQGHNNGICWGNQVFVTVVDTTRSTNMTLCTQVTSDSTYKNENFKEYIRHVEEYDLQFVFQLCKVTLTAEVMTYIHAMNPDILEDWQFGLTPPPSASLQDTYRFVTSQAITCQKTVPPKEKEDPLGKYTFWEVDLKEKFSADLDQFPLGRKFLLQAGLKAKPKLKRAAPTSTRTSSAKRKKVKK
The description is as above.

The target in experiment [2] is T1, HPV45 VLP. The experiment in a line: double-antibody sandwich ELISA, R001 as capture and HRP-R001 as detection, mixture of HPV types.
For the next experiment, the target named is T5, HPV18 VLP (Human papillomavirus type 18, UniProt P06794 62-568).
T5 construct: also called HPV18完整VLP蛋白
T5 sequence: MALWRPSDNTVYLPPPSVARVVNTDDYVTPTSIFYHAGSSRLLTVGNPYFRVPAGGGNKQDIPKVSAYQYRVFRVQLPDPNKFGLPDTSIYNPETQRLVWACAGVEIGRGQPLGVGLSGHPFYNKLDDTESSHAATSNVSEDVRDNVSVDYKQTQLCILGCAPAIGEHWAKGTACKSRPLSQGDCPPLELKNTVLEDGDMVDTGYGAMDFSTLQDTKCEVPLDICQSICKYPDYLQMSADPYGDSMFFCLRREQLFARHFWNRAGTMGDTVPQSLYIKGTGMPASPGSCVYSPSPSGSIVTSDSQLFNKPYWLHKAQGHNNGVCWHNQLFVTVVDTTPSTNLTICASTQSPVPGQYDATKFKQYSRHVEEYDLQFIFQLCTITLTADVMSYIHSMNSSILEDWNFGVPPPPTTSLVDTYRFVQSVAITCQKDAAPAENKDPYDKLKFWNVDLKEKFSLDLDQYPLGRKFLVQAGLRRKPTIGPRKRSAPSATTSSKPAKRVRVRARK
The experiment is described as above.

B1: HPV 16 R001 (antibody, V domains shown)
VH: QSVKESEGRLVTPGTPLTLTCTASGFTMSRYHMTWVRQAPGKGLEWIGIIYARNSDTYYANWAKGRFTISKTSTTVDLKITSPTIEDTATYFCARVDSDSSGAFDRLDLWGQGTLVTVSS
VL: DPMLTQTAASVEVAVGGTVTIKCQASQSIGGYLSWYQQKPGQRPKLLIYRASTLASGVPSRFKGSGSGTEYTLTFSGVECADAAAYYCQQGYTSSDINNAFGGGTEVVVK
notes: An HRP-labelled form served as detection antibody in the sandwich ELISA; also called HPV16.001; 单克隆抗体HPV 16 R001
Turning to B1, the OD450-blank with HPV45 VLP [1] is 0.002 OD450; with HPV58 VLP, 0.003 OD450; with HPV59 VLP, 0 OD450; with HPV33 VLP, 0.001 OD450. In addition, the binding result with HPV45 VLP [2] and with HPV18 VLP was “no binding (tested: 50ng/mL，25ng/mL，12.5ng/mL)” each time.
